Target: T1, RV3 preF OnlyEcto (Human respirovirus 3 (HPIV3), strain …, stabilised)
T1 construct: also called RV3 preF lead candidate; source: Expi293F, transfected, purified (Capto Q Impress, SEC)
Assay: BLI; kinetic Octet; […] (0-900 s), […] (900-1800 s)
Details: both partners purified

B1: single-domain antibody (sdAb) 4C06 (VHH)
VHH: EVQLVESGGGLVQPGGSLRLSCSASGSLSTIKALGWYRRAPGRERELVASITSAGETNYADSAKGRFTVSTDNAKNTVDLRMNSLKPEDTAVYYCYAESFVLNIYWGQGTQVTVSS
notes: also called VHH 4C06
Question: Does B1 bind?
Answer: binds
